From patent US20170014494A1

Target: SERCA2a wild type (WT), expressed from a plasmid in HEK293 cells
Assay: cell-based or functional assay

EC50 (Ca2+) of ATPase activity of WT SERCA2a with co-expression of SUMO1: 110 nM
Substance: flag-tagged SUMO1 (from UniProt P63165 2-97)
